Drawing on patent publication US20230062800A1 (DENALI THERAPEUTICS, published 2023), this text covers Kd for one molecule.

In the assay the target is T1, human apical domain TfR (human, UniProt P02786 198-378).
T1 construct: The SPR analyte is printed only as "human apical domain TfR"; also called human TfR; human transferrin receptor 1 apical domain
The assay is described as follows: Biacore SPR as in Example 2; steady-state fit. On the procedure:
To determine whether SGSH-Fc fusion proteins with engineered TfR binding affects the ability of the modified Fc domain to interact with human TfR, the affinity of ETV: SGSH Bizyme Structure 1 (Example 1) for human TfR was assessed using a Biacore™ surface plasmon resonance assay. Biacore™ Series S CM5 sensor chips were immobilized with anti-human Fab (human Fab capture kit from GE Healthcare). 5 μg/mL of the SGSH-Fc fusion proteins were captured for 1 minute on each flow cell and serial 3-fold dilutions of human apical domain TfR were injected at a flow rate of 30 μL/min. Each sample was analyzed with a 3-minute association and a 3-minute dissociation. After each injection, the chip was regenerated using 10 mM glycine-HCl (pH 2.1). Binding response was corrected by subtracting the RU from a flow cell capturing an irrelevant IgG at similar density. Steady-state affinities were obtained by fitting the response at equilibrium against the concentration using Biacore™ T200 Evaluation Software v3.1. Biacore™ analysis established that SGSH-Fc fusion proteins with a TfR-binding site engineered into the Fc region bind to human TfR.

T1 sequence (P02786 198-378 limits assumed): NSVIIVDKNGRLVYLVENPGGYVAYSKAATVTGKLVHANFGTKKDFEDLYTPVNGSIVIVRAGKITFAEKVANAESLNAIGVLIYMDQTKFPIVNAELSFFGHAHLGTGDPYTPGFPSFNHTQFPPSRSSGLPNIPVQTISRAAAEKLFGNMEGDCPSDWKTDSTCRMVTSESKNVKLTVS

B1: ETV:SGSH Bizyme Structure 4 (Fc fusion)
chain 1: RPRNALLLLADDGGFESGAYNNSAIATPHLDALARRSLLFRNAFTSVSSCSPSRASLLTGLPQHQNGMYGLHQDVHHFNSFDKVRSLPLLLSQAGVRTGIIGKKHVGPETVYPFDFAYTEENGSVLQVGRNITRIKLLVRKFLQTQDDRPFFLYVAFHDPHRCGHSQPQYGTFCEKFGNGESGMGRIPDWTPQAYDPLDVLVPYFVPNTPAARADLAAQYTTVGRMDQGVGLVLQELRDAGVLNDTLVIFTSDNGIPFPSGRTNLYWPGTAEPLLVSSPEHPKRWGQVSEAYVSLLDLTPTILDWFSIPYPSYAIFGSKTIHLTGRSLLPALEAEPLWATVFGSQSHHEVTMSYPMRSVQHRHFRLVHNLNFKMPFPIDQDFYVSPTFQDLLNRTTAGQPTGWYKDLRHYYYRARWELYDRSRDPHETQNLATDPRFAQLLEMLRDQLAKWQWETHDPWVCAPDGVLEEKLSPQCQPLHNELGGGGSDKTHTCPPCPAPEAAGGPSVFLFPPKPKDTLMISRTPEVTCVVVDVSHEDPEVKFNWYVDGVEVHNAKTKPREEQYNSTYRVVSVLTVLHQDWLNGKEYKCKVSNKALSAPIEKTISKAKGQPREPQVYTLPPSRDELTKNQVSLSCAVKGFYPSDIAVEWESNGQPENNYKTTPPVLDSDGSFFLVSKLTVDKSRWQQGNVFSCSVMHEALHNHYTQKSLSLSPGK
chain 2: RPRNALLLLADDGGFESGAYNNSAIATPHLDALARRSLLFRNAFTSVSSCSPSRASLLTGLPQHQNGMYGLHQDVHHFNSFDKVRSLPLLLSQAGVRTGIIGKKHVGPETVYPFDFAYTEENGSVLQVGRNITRIKLLVRKFLQTQDDRPFFLYVAFHDPHRCGHSQPQYGTFCEKFGNGESGMGRIPDWTPQAYDPLDVLVPYFVPNTPAARADLAAQYTTVGRMDQGVGLVLQELRDAGVLNDTLVIFTSDNGIPFPSGRTNLYWPGTAEPLLVSSPEHPKRWGQVSEAYVSLLDLTPTILDWFSIPYPSYAIFGSKTIHLTGRSLLPALEAEPLWATVFGSQSHHEVTMSYPMRSVQHRHFRLVHNLNFKMPFPIDQDFYVSPTFQDLLNRTTAGQPTGWYKDLRHYYYRARWELYDRSRDPHETQNLATDPRFAQLLEMLRDQLAKWQWETHDPWVCAPDGVLEEKLSPQCQPLHNELGGGGSDKTHTCPPCPAPEAAGGPSVFLFPPKPKDTLMISRTPEVTCVVVDVSHEDPEVKFNWYVDGVEVHNAKTKPREEQYNSTYRVVSVLTVLHQDWLNGKEYKCKVSNKALSAPIEKTISKAKGQPREPQVYTLPPSRDELTKNQVSLWCLVKGFYPSDIAVEWESYGTEWANYKTTPPVLDSDGSFFLYSKLTVTKEEWQQGFVFSCSVMHEALHNHYTQKSLSLSPGK
modifications: SGSH cysteine at position 70 (full-length SGSH numbering) largely converted to formylglycine (fGly 99% in Table 2); the fGly form is SEQ ID NO:95; SGSH cysteine at position 70 (full-length SGSH numbering) largely converted to formylglycine (fGly 99% in Table 2); the fGly form is SEQ ID NO:67
notes: Heterodimer; The preparation may be a mixture; also called fourth "N-terminal bizyme" SGSH-Fc fusion protein; P329S variant of Bizyme Structure 1
For the molecule B1, the Kd (usually the concentration at which binding is half-saturated) was 340 nM.
